According to patent US20220396632A1 (VERSEAU THERAPEUTICS, published 2022):

T1: Recombinant human PSGL-1(ECD)-hFc1 (R&D Systems, Cat. 3345-PS) (human, UniProt Q14242 42-305)
T1 construct: Bought; Gln42-Val295 counted on AAC50061; also called PSGL-1-Fc; PSGL-1-hFc1 chimera; not shown: human IgG1 Fc, Pro100-Lys330
T1 sequence: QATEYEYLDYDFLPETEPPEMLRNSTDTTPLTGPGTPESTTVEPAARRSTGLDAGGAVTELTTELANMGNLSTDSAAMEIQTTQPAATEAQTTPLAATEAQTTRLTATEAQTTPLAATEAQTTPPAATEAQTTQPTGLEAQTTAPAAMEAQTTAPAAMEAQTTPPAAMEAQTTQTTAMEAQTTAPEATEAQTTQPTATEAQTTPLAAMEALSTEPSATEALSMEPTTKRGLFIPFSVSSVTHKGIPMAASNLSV

T2: Human fibrinogen protein (ThermoFisher, RP-43142) (human, UniProt P02671 20-629; P02675 31-491; P02679 27-453, limits assumed, natural sulfotyrosines)
T2 construct: mature; Native dimer with 3 pairs of non-identical chains; also called gamma-fibrinogen; γ fibrinogen protein
T2 sequence (looked up) 1: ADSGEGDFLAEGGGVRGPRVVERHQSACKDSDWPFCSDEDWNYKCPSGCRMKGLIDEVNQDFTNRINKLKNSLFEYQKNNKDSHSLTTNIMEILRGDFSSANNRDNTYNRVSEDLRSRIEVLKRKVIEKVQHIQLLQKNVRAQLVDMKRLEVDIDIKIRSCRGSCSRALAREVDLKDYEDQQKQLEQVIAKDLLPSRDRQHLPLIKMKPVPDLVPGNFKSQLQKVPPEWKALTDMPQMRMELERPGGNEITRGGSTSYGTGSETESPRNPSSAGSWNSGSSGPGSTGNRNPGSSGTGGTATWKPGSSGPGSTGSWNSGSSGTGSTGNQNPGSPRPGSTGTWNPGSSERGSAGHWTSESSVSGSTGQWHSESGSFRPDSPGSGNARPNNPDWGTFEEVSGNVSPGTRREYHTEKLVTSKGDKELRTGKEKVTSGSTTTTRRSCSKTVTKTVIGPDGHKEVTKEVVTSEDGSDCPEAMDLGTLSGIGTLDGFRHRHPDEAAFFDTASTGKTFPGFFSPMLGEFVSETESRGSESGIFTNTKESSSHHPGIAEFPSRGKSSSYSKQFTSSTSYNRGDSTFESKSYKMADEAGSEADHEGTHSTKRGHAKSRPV
T2 sequence (looked up) 2: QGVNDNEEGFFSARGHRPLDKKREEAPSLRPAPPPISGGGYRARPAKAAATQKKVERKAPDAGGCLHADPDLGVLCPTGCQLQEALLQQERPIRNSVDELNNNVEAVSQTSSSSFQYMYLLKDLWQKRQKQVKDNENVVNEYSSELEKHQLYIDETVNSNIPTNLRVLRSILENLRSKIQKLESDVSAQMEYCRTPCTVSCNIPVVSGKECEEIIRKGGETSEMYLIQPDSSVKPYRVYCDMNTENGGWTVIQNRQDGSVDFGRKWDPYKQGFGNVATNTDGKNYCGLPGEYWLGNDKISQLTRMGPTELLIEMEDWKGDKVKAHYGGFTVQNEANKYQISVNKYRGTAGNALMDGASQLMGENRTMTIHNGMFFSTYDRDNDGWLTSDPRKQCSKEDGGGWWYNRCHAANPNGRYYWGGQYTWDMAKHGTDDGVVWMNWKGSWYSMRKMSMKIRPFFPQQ
T2 sequence (looked up) 3: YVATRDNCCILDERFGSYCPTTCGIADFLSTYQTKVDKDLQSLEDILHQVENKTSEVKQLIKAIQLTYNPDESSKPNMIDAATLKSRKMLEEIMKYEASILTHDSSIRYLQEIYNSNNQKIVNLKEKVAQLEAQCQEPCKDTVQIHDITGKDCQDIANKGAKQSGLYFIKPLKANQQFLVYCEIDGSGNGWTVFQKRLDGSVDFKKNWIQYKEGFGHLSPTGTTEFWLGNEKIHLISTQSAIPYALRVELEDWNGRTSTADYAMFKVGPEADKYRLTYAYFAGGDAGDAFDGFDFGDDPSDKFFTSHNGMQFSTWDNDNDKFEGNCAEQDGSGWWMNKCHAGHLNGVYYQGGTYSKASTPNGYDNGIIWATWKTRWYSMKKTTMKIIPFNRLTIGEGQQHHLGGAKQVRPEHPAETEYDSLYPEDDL


Columns and labels:
[1] = molecular target: T1, Recombinant human PSGL-1(ECD)-hFc1 (R&D …); assay: blocking ELISA vs VISTA-Fc, pH 6.0
[2] = molecular target: T1, Recombinant human PSGL-1(ECD)-hFc1 (R&D …); assay: ELISA, 50 nM mAb
Protocol: (§1) Recombinant PSGL-1-hFc1 chimera protein consisting of PSGL-1's extracellular domain (ECD) served as a positive control. […] Primary antibody was added (25 ul per well) in duplicate at 50 nM in assay buffer (blocking buffer containing 0.05% Tween®20) into test and control (just blocked) wells and the plate incubated for 45 min at 37° C.

[3] = molecular target: T2, Human fibrinogen protein (ThermoFisher, …); assay: ELISA, 50 nM mAb
Protocol: as §1

[4] = molecular target: T3, Human complement C4 protein (Millipore Sigma, Cat. 204886) (human, UniProt P0C0L4 20-675; P0C0L4 680-1446; P0C0L4 1454-1744, limits assumed, natural sulfotyrosines); assay: ELISA, 50 nM mAb
T3 construct: mature
T3 sequence (P0C0L4 20-675 limits assumed, form in doubt, chain 1 of 3): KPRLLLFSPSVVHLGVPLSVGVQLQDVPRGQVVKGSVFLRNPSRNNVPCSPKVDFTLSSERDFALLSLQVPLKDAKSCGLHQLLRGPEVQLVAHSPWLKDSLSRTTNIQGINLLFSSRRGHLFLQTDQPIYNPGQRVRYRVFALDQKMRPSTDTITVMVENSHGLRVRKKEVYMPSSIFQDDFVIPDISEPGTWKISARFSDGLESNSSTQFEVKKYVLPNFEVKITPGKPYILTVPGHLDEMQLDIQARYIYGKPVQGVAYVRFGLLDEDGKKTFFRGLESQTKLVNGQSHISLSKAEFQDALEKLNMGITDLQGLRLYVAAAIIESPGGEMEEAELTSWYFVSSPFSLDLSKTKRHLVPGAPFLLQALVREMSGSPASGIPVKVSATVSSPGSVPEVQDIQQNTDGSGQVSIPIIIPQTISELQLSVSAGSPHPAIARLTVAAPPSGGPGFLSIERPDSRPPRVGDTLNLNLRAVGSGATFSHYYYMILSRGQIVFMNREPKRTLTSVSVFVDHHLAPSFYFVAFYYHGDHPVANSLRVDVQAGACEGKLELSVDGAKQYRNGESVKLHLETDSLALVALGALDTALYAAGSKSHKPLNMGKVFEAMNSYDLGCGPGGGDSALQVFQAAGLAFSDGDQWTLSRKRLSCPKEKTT
T3 sequence (P0C0L4 680-1446 limits assumed, form in doubt, chain 2 of 3): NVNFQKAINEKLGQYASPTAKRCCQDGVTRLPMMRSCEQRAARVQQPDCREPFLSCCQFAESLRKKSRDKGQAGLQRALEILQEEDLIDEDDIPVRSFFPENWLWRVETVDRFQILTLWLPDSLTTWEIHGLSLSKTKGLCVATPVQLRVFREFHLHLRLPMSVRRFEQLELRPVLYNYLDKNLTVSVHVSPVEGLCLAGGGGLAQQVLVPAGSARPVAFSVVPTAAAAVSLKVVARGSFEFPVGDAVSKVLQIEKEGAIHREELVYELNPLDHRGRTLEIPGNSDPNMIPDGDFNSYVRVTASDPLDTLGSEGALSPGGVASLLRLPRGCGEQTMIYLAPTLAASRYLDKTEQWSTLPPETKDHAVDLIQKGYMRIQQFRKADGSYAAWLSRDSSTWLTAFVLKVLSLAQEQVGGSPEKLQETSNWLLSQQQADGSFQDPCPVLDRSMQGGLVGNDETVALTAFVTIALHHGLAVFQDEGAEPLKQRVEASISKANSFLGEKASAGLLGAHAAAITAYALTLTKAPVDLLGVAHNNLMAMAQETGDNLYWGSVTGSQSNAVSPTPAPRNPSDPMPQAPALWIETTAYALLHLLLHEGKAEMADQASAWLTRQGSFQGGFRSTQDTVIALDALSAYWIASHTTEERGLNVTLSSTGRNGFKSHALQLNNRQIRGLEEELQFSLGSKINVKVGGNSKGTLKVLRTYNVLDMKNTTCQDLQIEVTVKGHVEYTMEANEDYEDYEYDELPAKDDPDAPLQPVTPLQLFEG
T3 sequence (P0C0L4 1454-1744 limits assumed, form in doubt, chain 3 of 3): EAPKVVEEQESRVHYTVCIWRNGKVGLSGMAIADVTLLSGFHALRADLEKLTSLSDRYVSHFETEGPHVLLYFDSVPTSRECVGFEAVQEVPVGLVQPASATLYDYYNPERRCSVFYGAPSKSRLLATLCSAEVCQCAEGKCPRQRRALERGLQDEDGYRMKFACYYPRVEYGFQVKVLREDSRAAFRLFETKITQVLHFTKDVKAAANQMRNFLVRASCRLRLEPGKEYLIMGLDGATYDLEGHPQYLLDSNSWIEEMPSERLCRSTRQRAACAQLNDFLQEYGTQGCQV
Protocol: as §1

[5] = molecular target: T4, Cynomolgus PSGL-1(ECD)-hFc1 (cynomolgus macaque); assay: ELISA, 20 nM mAb on plate cyno PSGL-1(ECD)-Fc
T4 construct: also called Cyno PSGL1-Fc; Cyno PSGL-1(ECD)-Fc
T4 sequence (chain, as listed by the source limits assumed): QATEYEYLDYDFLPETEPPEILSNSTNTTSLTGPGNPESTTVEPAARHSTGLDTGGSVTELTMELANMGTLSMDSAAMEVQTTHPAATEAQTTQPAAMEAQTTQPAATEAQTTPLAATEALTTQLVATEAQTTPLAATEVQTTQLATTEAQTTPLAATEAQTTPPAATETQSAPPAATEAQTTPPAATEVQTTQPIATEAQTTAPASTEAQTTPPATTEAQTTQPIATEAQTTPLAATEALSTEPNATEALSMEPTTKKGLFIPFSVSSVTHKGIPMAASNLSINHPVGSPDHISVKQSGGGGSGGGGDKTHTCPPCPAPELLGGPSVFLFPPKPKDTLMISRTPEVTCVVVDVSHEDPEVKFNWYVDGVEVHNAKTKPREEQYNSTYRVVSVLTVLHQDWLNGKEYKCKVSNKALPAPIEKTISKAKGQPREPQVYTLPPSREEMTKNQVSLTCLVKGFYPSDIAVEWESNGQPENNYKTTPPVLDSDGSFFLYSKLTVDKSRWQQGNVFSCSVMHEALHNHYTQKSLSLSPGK
Outline: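 Cyno PSGL-1(ECD) coated overnight at 4 °C, 3 µg/mL in PBS pH 7.4. Anti-PSGL-1 IgG applied at single 20 nM or as 0.003–200 nM curves, 45 min at 37 °C. HRP/TMB read at A450, with duplicates averaged and background subtracted.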

Binder | % max Block [1] [%] | IC50 [1] [nM] | A450nm [2] [A450nm] | binding normalized to PSGL-1 [3] | binding normalized to PSGL-1 [4] | A450nm [5] [A450 nm]
18K07 (antibody, V domains shown, From mouse immunisation; only variable domains given) VH: QIQLVQSGPELKKPGETVKISCEASGYTFTTYGMNWVKQAPGKGLKWMGWINTYSGVPTYADDFQGRFAFSVETSATTAYLQINNLKNEDAATYFCARSDDTYYGFAYWGQGTLVTVSA VL: not shown | 0 |  |  |  |  | 
43B6 (antibody, V domains shown, Control anti-PSGL-1 mAb, recombinant; only variable domains given; also called 43B3) VH: EVQLQQSGPDLVKPGALVKISCKASGYSFTAYYIHWVKQSHGKSLEWIGRVNPNTGGTSYNPKFKGKAILNVDKSSSTAYMELRSLTSEDSAVYYCARSGSPYYRYDDWGQGTTLTVSS VL: ENVLTQSPAIMSASPGEKVTMTCRASSTVNSTYLHWFQQKSGASPKLWIYGSSNLASGVPARFSGSGSGTSYSLTISSVEAEDAATYYCQQYSGYPLTFGAGTTLELK | 100 | 9 |  |  |  | 
09C10 (antibody, V domains shown) VH: EVKLLESGGGLIQPGGSLRLSCAASGFTVSNNYVTWVRQAPGKGLELVSSIYSGGGTYYADSVKGRFTISRDNSKNTVYLQMNSLRADDTAVYYCARNVPVTNFGYWGQGTLVTVSS VL: DIVMTQSPLSLPVTLGQPASISCRSSQSLVYRDGNTYLNWFQQRPGQSPRRLIYKVSNRDSGVPDRFSGSGSGTDFTLKISRVEAEDVGVYYCMQLTHWPPGFAQGTKLEIK |  |  | 2.16 | 0.61 | 0.88 | 1.17
9F9 (antibody, V domains shown, Control anti-PSGL-1 mAb, recombinant; only variable domains given; also called 9F6) VH: EVQLVETGGGLVQPKGSLKLSCAASGFTFNTNAMNWVRQAPGKGLEWVARIRSKSNNYATYYADSVKDRFTISRDDTQSMIYLQMNNLKTEDTGMYYCVRGGSYWYFDVWGAGTTVTVSS VL: DVLMTQTPLSLPVSLGDQASISCRSSQSIVNSNGNTYLEWYLQKPGQSPKLLIYKVSNRFSGVPDRFSGSGSGTDFTLKISRVEAEDLGVYYCFQGSHVPWTFGGGTKLEIK | 100 | 8 |  |  |  | 
16E17 (antibody, V domains shown, From mouse immunisation; only variable domains given) VH: QIQLVQSGPELKKPGETVKISCKASGYAFTTYGMSWVKQAPGKGLKWMGWINTYSGVPKYADDFKGRFAFSLETSASTAYLHINNLKNEDTATYFCGRHYYGSSYFDYWGQGTTLTVSS VL: not shown | 0 |  |  |  |  | 
19L04 (antibody, IgG4, V domains shown, From mouse immunisation; only variable domains given) VH: QIQLVQSGPELKKPGETVKISCKASGYTFTTYGMSWVKQAPGKGLKWMGWINTYSGVPTYADDFKGRFAFSLETSASTAYLQINNLKIEDTATYFCARHYYGSHYFDYWGQGTTLTVSS VL: DIMMTQSPSSLAMSVGQKVTLRCKSSQSLLNSSNQKNYLAWYQQKPGQSPKLLVYFASTRESGVPVRFIGSGSGTDFTLTISSMQAEDLADYFCQQHYFSPLTFGAGTKLELK | 0 |  |  |  |  | 
05E08 (antibody, IgG4, V domains shown) VH: EVQLVQSGGGVVQPGRSLRLSCAASGFTFSTYAMHWVRQAPGKGLEWVAVISYDGSNKYYADSVKGRFTISRDNSRNTLFLQMNSLRDEDTAVYYCAKRGTMIRGERSLDFWGQGTLVTVSS VL: AIQMTQSPSFLSASVGDRVTITCRASQGINSWLAWYQQKPGTAPNLLIHAASTLQSGVPSRFSGSRSGTEFTLTISSLQPEDFATYYCQQLQSYPLTFGQGTRLEIK |  |  | 2.46 | 0.44 | 1.04 | 0.77
06C04 (antibody, IgG4, V domains shown) VH: EVQLVESGGGLVQPGGSLRLSCAASGFTFSDHYMDWVRQAPGKGLEWVGRSRNKVKSYTTAYAASVEGRITISRDDSKNSLYLEMNSLKTEDTAVYYCVRVRWGGAFDIWGQGTMVTVSS VL: QPVLTQPPSASGSPGQSVTISCTGTSSDVGGYNYVSWYQQHPGKAPKLMIYEVSKRPSGVPDRFSGSKSGNTASLTVSGLQAEDEADYYCSSYAGSNNLRVFGGGTKLTVL |  |  | 2.22 | 0.51 | 1.1 | 0.55
